Legend:
C-reactive protein (CRP) [1] = target: T1, C-reactive protein (CRP) (Homo sapiens, UniProt P02741 P02741:19-224); assay: SPR; Biacore X, SA chip with biotinylated aptamer, 10 mM Tris, 50 mM NaCl, 2 mM CaCl2, 25 C, 1:1 Langmuir; conditions: immobilised on Dynabeads M-450 Epoxy for SELEX, in solution for SPR; chain copies: 5 inferred (pentamer)
T1 sequence: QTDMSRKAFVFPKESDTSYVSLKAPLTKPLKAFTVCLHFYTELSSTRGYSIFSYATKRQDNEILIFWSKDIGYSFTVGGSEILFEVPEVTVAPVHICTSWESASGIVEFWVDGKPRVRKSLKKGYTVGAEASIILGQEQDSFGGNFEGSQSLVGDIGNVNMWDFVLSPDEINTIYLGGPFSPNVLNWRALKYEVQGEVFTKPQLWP
Description: Then, 90 μL of the aptamer solution A being cooled to 4° C. is aliquoted, and the aptamer solution A is injected to pass the surface of the SA sensor chip, so that the aptamers A in the aptamer solution A is coated on the surface of the SA sensor chip. Later, 90 μL of the reverse primer solution is injected and passes through the surface of the SA sensor chip for blocking. Subsequently, 5×SSCT buffer is used to wash the surface of the SA sensor chip until the SPR response reaches a balance.
Five cycles as described in the following are then performed. Here, each cycle includes: (1) injecting 90 μL of the testing solution to pass through the surface of the SA sensor chip; (2) washing the surface of the SA sensor chip by using 90 μL of a washing buffer C (10 mM Tris buffer containing 50 mM NaCl and 2 mM CaCl₂); (3) recording the SPR response of the SA sensor chip for 5 min; and (4) injecting 90 μL of 100 mM NaOH to pass the surface of the SA sensor chip, so that the surface of the SA sensor chip is regenerated. The testing solutions used in the five cycles are washing buffers C respectively having a CRP concentration of 0.01, 0.05, 0.1, and 0.5 mg/L.
FIG. 4 is a SPR response measured under different CRP concentrations detected by the SA sensor chip coated with aptamers A along with time in the Biacore X system. […]

C-reactive protein (CRP) [2] = target: T1, C-reactive protein (CRP); assay: competition; PCR product 3; CRP-coated tube, competition with free CRP, PCR readout, 25 C; conditions: immobilised on Dynabeads M-450 Epoxy for SELEX, in solution for SPR; chain copies: 5 inferred (pentamer)

Binder	Kd (C-reactive protein (CRP) [1]) [nM]	binding result (C-reactive protein (CRP) [2])
aptamer A (ssDNA, 5'-biotin (SPR and bead assay)) DNA: GGCAGGAAGACAAACACGATGGGGGGGTATGATTTGATGTGGTTGTTGCATGATCGTGGTCTGTGGTGCTGT	3.51	
aptamer B (ssDNA) DNA: GGCAGGAAGACAAACACACAAGCGGGTGGGTGTGTACTATTGCAGTATCTATTCTGTGGTCTGTGGTGCTGT		binds
